MPV D280 Neutralization - IC50, RSV Neutralization - IC50 and Kd data for 17 molecules are collected here from patent publication US20260028391A1.

In test [1] the target is fusion glycoprotein of the MPV D280 used in the neutralization assay of Example 3 (metapneumovirus (strain not stated)). Nature of the test: cell-based or functional assay.
The target of test [2] is fusion glycoprotein of the RSV used in the neutralization assay of Example 1 (respiratory syncytial virus (strain not stated)). Put plainly: cell-based or functional assay.
In test [3] the target is MPV fusion glycoprotein with the D280N mutation (MPV-F N280) (metapneumovirus). Nature of the test: SPR; F protein loaded on streptavidin sensors, mAb in solution. For orientation: SPR reads the build-up and loss of mass on a sensor chip optically.
Test [4] addresses MPV fusion glycoprotein without the D280N mutation (MPV-F D280) (metapneumovirus). The description is as above.

B1: MPK174-v2 (antibody, V domains shown)
VH: EVQLVESGGGLVKPGGSLRLSCAASRFKFGDYYMSWIRQAPGKGLEWVSNISPSSSYTNYADSVKGRFTISRDNAKNLLYLQMNSLRAEDTAVYYCARESCSGGSCSLHGMDVWGQGTTVTVAS
VL: QSVLTQPPSVSGAPGQRVTISCTGSSSNIGAGYDVHWYQQLPGTAPKLLIYDNSNRPSGVPDRFSGSKSGTSASLAITGLRAEDDADYYCQSYDRSLGGSIFGGGTKLTVL
As to B1, in test [1], the MPV D280 Neutralization - IC50 was 17.7 ng/mL. Also, the RSV Neutralization - IC50 in test [2] was found to be 13.6 ng/mL. For the same molecule, the Kd was 100 nM in test [3] and 11000 pM in test [4].

B2: MPK144 (antibody, V domains shown)
VH: EVQLVESGGGLVRPGGSLRLSCAASGFTFTGYYMMWIRQAPGKGLEWISDISSSSSYTNYADSVKGRFAISRDNAQNTLYLQMNSLRAEDTAVYYCATEQVPSPGPFDLWGQGTLVTVSS
VL: QSVLTQPPSVSGAPGQRVTISCTGSSSNFGAGYDVHWYQQFPGTSPKLLIYRNTNRPSGVPDRFSGSKSGTSASLAITGLQAEDEADYYCQSYDRSLTGWVFGGGTKLTVL
In turn, B2 displayed an MPV D280 Neutralization - IC50 in test [1] of 4.9 ng/mL. This molecule had an RSV Neutralization - IC50 in test [2] of 8.2 ng/mL. Moreover, the Kd in test [3] was found to be 100 nM; in test [4] it was 810 pM.

B3: MPK196 (antibody, V domains shown)
VH: QVQLVESGGGLVKPGGSLRLSCAASRFKFGDYYMSWIRQAPGKGLEWVSNISPSSSYTNYADSVKGRFTISRDNANNLLYLQMNSLRAEDTAVYYCARESCSGGSCSLHGMDVWGQGTTVTVAS
VL: QSVLTQPPSVSGAPGQRVTISCTGSSSNIGAGYDVHWYQQLPGTAPKLLIYDNSNRPSGVPDRFSGSKSGTSASLAITGLRAEDDADYYCQSYDRSLGGSIFGGGTKLTVL
B3 had an MPV D280 Neutralization - IC50 in test [1] of 27 ng/mL. Also, the results for the Kd in test [3] and in test [4] were 100 nM and 3800 pM, respectively.

B4: MPK158 (antibody, V domains shown)
VH: EVQLVESGGGLVKPGGSLRLSCAASGFSISGFYMIWIRQAPGKGLEWISDISASSSYIDYADSVKGRFTISRDNGQNTVHLLMNNLRADDTGVYYCAREQTPSPGPFDLWGQGTLVTVST
VL: QPVLTQPPSVSGAPGQRVTISCTGRSSNIGAGYDVHWYQHLPGTSPKLLIYRNSNRPSGVPDRFSGSTSGTSASLAITGLQADDEADYYCQAYDRILGGWAFGGGTKLTVL
With B4, the Kd turned out to be 0.29 nM in test [3] and 1 pM in test [4].

B5: MPK142-v1 (antibody, V domains shown)
VH: EVQLVESGGGLVEPGGSLRLSCAASGFTISGYGMSWVRQAPGKGLEWVSSISASSSYIYYGDAMKGRITISRDNGWNSMYLQMNSLRTEDTAVYYCATAPIEPPYFDLWGRGTLVTVSS
VL: QSVLTQPPSVSGAPGQRVTISCTGSSSNIGAGYDVHWYQQFPGKAPKVLIYGNNNRPSGVPDRFAASNSGASASLAITGLQAEDEAAYFCQSYDRRLSGPVFGGGTKLTVL
Regarding B5, the MPV D280 Neutralization - IC50 in test [1] turned out to be 3 ng/mL. The RSV Neutralization - IC50 in test [2] was 21.1 ng/mL. The Kd in test [3] was 100 nM; in test [4], 100000 pM.

B6: MPK145 (antibody, V domains shown)
VH: EVQLVESGGGLVEPGGSLRLSCAASGFTISGYGMSWVRQAPGKGLEWVSSISASSSYIYYGDAMKGRITISRDNGWNSMYLQMNSLRTEDTAVYYCATAPIEPPYFDLWGRGTLVTVSS
VL: QSVVTQPPSVSGAPGQRVTISCTGSSSNIGAGYDVHWYQQFPGKAPKVLIYGNNNRPSGVPDRFAASNSGASASLAITGLQAEDEAAYFCQSYDRRLSGPVFGGGTKLTVL
For B6, in test [1], the MPV D280 Neutralization - IC50 was 7.8 ng/mL. Moreover, in test [2], the RSV Neutralization - IC50 is 23.9 ng/mL. Besides, the Kd in test [3] came to 0.85 nM; in test [4], 1 pM.

B7: MPK142-v2 (antibody, V domains shown)
VH: EVQLVESGGGLVEPGGSLRLSCAASGFTISGYGMSWVRQAPGKGLEWVSSISASSSYIYYGDAMKGRITISRDNGWNSMYLQMNSLRTEDTAVYYCATAPIEPPYFDLWGRGTLVTVSS
VL: DIQLTQTPTSLSASVGDRVTFTCRASQNIGFYLNWYQQKPGKAPRLLIYGASNLQSGVPSRFSGSGAGTDFSLTISSLQPEDFATYYCQQSFNTPRTFGQGTKVEIN
For the molecule B7, the MPV D280 Neutralization - IC50 in test [1] was 135 ng/mL. This molecule returned an RSV Neutralization - IC50 in test [2] of 162 ng/mL. Further, the Kd came to 0.2 nM in test [3] and 2.7 pM in test [4].

B8: MPK130 (antibody, V domains shown)
VH: EVQLVESGGGLVKPGGSLTLSCEASGFSISGYYMIWVRQAPGKGLEWVSSISASDTYIDYAVSVQGRFTISRHNTKNSLYLQMSSLRVEDTGVYYCTREKVPSPGPFDCWGQGTLVTVSS
VL: QSVLTQPPSVSGAPGQRITISCTGTSSNIGAGYDVHWYQHLPGAAPRLLIYVNTNRPSGVPDRFSGARSGTSASLAITGLQAEDEADYYCQSYDRSLGGWAFGEGTKVTVL
Consider B8, for which the figures for the Kd in test [3] and in test [4] were 1.9 nM and 18 pM, respectively.

B9: MPK162 (antibody, V domains shown)
VH: EVQLVESGGGLVKPGDSLRLSCAASGFSLSSYYMFWIRQAPGKGLEWVSDISGGSTFTNYADSVKGRFTISRDNAKKVLYLQMNSLRVDDSAVYYCVRGSSISPNWFESWGQGALVTVSS
VL: QSVLTQPPSVSGAPGQRVTISCTGTSSNIGAGYDVHWYQQVPGTAPKLLIYGNSNRPSGVPDRFSGSKSGTAASLAINGLQTEDEAEYYCQSYDRSLTGSYVFGSGTRVFVR
In test [1], B9 showed an MPV D280 Neutralization - IC50 of 102 ng/mL. In test [2], this molecule returned an RSV Neutralization - IC50 of 25.2 ng/mL. The Kd in test [3] was 100 nM; in test [4], 100000 pM.

B10: MPK201 (antibody, V domains shown)
VH: EVQLVQSGAEVKKPGESLKISCQGSGYSFINYWIGWVRQKPGKGLEWMGIIYPFDSETKYSPSFQGHVTFSADKSINTAYVQWSSLRASDTAMYYCARFTFGLAVTTADVSGEGQAFEIWGQGTMVTVSS
VL: EIVMMQSPATLSVSPGERATLSCRASQSVAGNLAWYQQRPGQAPRLLVYGASTRASGVPARFSGSGSETEFTLTISSLQSEDFAVYYCHHYSDWPQAFGQGTRLDIK
Take B10: the RSV Neutralization - IC50 in test [2] turned out to be 2.4 ng/mL.

B11: MPK136 (antibody, V domains shown)
VH: EVQLVESGGGLVKPGGSLRLSCEASGFSLSGYYMIWIRQAPGKGLEWISSISGSGNYINYADSVKGRFTVSRDNGHNTLYLQMNSLRVEDTAVYYCATEQTPSPGPFDHWGQGTLVTVSS
VL: QVQLVQPPSVSGAPGQRVSISCTGTSSNIGTGYDVHWYQQFPGTSPKLLIYRNTNRPSGVPDRFSGSKSGSSASLAIAGLQAEDEADYYCQSYDRSVSGWVFGGGTKLTVL
In turn, B11 gave an MPV D280 Neutralization - IC50 in test [1] of 15.8 ng/mL. In test [2], this molecule came in with an RSV Neutralization - IC50 of 34.4 ng/mL. Moreover, the Kd in test [3] came to 4.6 nM; in test [4] it was 1 pM.

B12: MPK149 (antibody, V domains shown)
VH: QVQLVESGGGLVKPGGSLRLSCEASGFTISGYFMIWIRQAPGKGLEWISSISGSSTYTDYAESVKGRFTISRDNGRSTLYLQMNSLRVEDTAVYYCATEQTPSPGPFDLWGQGTLVTVSS
VL: QSVVTQPPSVSGAPGQRVTISCTGTSSNIGAGYDVHWYQQFPGTSPRLLINRNTNRPSGVPDRFSGSQSGSSASLAIAGLQAEDEADYYCQSYDRSVSGWVFGGGTKLTVL
Regarding B12, the MPV D280 Neutralization - IC50 in test [1] stood at 19.2 ng/mL. The same molecule displayed an RSV Neutralization - IC50 in test [2] of 33.5 ng/mL. Further, the Kd in test [3] came to 0.4 nM; in test [4], 1 pM.

B13: MPK150-v2 (antibody, V domains shown)
VH: EVQLVESGGGLVKPGGSLRLSCEASGISLSGYYMIWIRQAPGKGLEWISSISGSSTYIDYADSVRGRFTISRHNGQNTIYLQMNSLRVEDTAVYFCATEQTPSPGPFELWGRGILVTVSS
VL: QSVLTQPPSVSGAPGQRVTIFCTGTSSNIGTGYDVHWYQQFPGTSPKLLIFRNSNRPSGVPDRFSGSKSGSSASLAIAGLQAEDEADYYCQSYDRGVNGWVFGGGTKLTVL
Consider B13, for which the MPV D280 Neutralization - IC50 in test [1] was 15.8 ng/mL. This molecule also gave an RSV Neutralization - IC50 in test [2] of 14.7 ng/mL. The Kd in test [3] amounted to 0.58 nM; in test [4] it was 1 pM.

B14: MPK204 (antibody, V domains shown)
VH: QVQLVESGGGLVKPGGSLRLSCEASGLSLSGYYMIWIRQAPGKGLEWISSISSSSNYIDYADSVKGRFTISRHNGQNTLYLQMNSLRVEDTAVYYCATEQTPSPGPFDLWGQGTLVTVSS
VL: QSVLTQPPSVSGAPGQRVTISCTGTSSNIGTGYDVHWYQQFPGTSPKLLIYRNTNRPSGVPDRFSGSKSGSSASLAIAGLQAEDEADYYCQSYDRSVSGWVFGGGTKLTVL
With B14, the results for the Kd in test [3] and in test [4] were 2.6 nM and 1 pM, respectively.

B15: MPK133 (antibody, V domains shown)
VH: QVQLVQSGGGLVKPGGSLRLSCAASEFSFSGYFMIWIRQAPGKGLEWISYISGSSTYTNYADSVKGRFTISRDNAQNTLYLEMNSLRAEDTGVYYCATEQVPSPGPFDLWGQGTLVTVSS
VL: QSVLTQPPSVSGAPGQRVTISCTGSSSNIGAGYDVHWYQQFPGRSPTLLIYRNTNRPSGVPDRFSGSQSGSSASLAITGLQAEDEADYYCQSYDRTLSGWAFGGGTKVTVL
As to B15, the Kd worked out at 3.7 nM in test [3] and 82 pM in test [4].

B16: MPK146 (antibody, V domains shown)
VH: QVQLVESGGGLVKPGGSLRLSCAASGFTFSGYYMIWIRQAPGKGLEWIASISGSSNYIDYADSVRGRFTISRDNARNILDLQMNSLRAGDTALYYCATEQVPSPGPFDLWGQGTLVTVSS
VL: QSVLTQPPSVSGAPGQRVTISCTGSNSNLGAGYDVHWYQQFPGTSPKLLIYRNTNRPSGVPDRFAGSKSGTSASLAITGLQAEDEADYYCQSYDRSLSGWVFGGGTKLTVL
As to B16, the values for the Kd in test [3] and in test [4] were 7.2 nM and 1 pM, respectively.

B17: MPK141 (antibody, V domains shown)
VH: EVQLVESGGGLVKPGGSLRLSCAASGFTISGYYMTWIRQAPGKGLEWISYISGSSSYTNYADSVKGRFTISRDNGRNSVYLQMNSLRADDTGVYYCAREETPSPGPFDSWGQGILVTVSS
VL: QSVLTQPPSVSGAPGQRIIISCIGSSSNIGTGYDVHWYQQLPGRAPKLLISRNTNRPSGIPDRFSGSKSGTSASLAITGLQADDEADYYCQSYDRGLDGWVFGGGTKLTVL
The molecule B17 showed an MPV D280 Neutralization - IC50 in test [1] of 9.8 ng/mL. Moreover, the RSV Neutralization - IC50 in test [2] was found to be 14 ng/mL. Besides, the Kd in test [3] turned out to be 0.84 nM; in test [4], 1 pM.

For orientation: Kd means the concentration at which binding is half-saturated. A lower Kd goes with tighter binding.
